{"source": "paper PMC4336609", "target": "14-3-3β (UniProt P31946)", "assay": "GST-14-3-3β pull-down from cell lysate", "conditions": "reference: wild type; sites T181"}
{"substance": "XLF (from UniProt Q9H9Q4) T181A", "values": [{"measurement": "binding against the reference", "result": "lost"}]}
